Columns and labels:
[1] = substrate: C[C@@H]1O[C@@H](O[C@@H]2[C@@H](O)[C@H](OCCc3ccc(O)c(O)c3)O[C@H](CO)[C@H]2OC(=O)/C=C/c2ccc(O)c(O)c2)[C@H](O)[C@H](O)[C@H]1O; assay: uptake into vacuolar membrane vesicles, HPLC, Lineweaver-Burk; assay type: biochemical, Rehmannia glutinosa; conditions: vesicles from transfected N. benthamiana protoplasts, 25 mM Tris-MES pH 8.0, 0.4 M sorbitol, 0.1% BSA, 25 °C, 20 min, substrate 20–120 μM
[2] = substrate: C[C@@H]1O[C@@H](O[C@@H]2[C@@H](O)[C@H](OCCc3ccc(O)c(O)c3)O[C@H](COC(=O)/C=C/c3ccc(O)c(O)c3)[C@H]2O)[C@H](O)[C@H](O)[C@H]1O; assay: as above; assay type: biochemical, Rehmannia glutinosa; conditions: vesicles from transfected N. benthamiana protoplasts, 25 mM Tris-MES pH 8.0, 0.4 M sorbitol, 0.1% BSA, 25 °C, 20 min, substrate 20–120 μM

B1: RgMATE6 (Rehmannia glutinosa) (protein)
chain: MEDNSKQPLLSYEEEEEEDQVPDLVSVPSRFSFQRLSNFSFFSSFVADDEDIAPIETFSEFMSAFKDESGKLWFLAGPAIFTSLCQYSLGAFTQTFAGHVGTLELAAFSSVIAGLSLGVMLGMGSAVETLCGQAFGAGQHDMLGIYLQRSWIILLATGFILMFLYIFALPFLLVIGQTESISRVAGKLALWMIPQLFAYALNFPTAKFLQAQSKIMAMAWISAAGLGLHVLFSWLLMLKLGWGMAGGAAVLDGSWWFIVIAQLIYIFSGTCGKAWPGFSLRAFSNLWGFVRLSVASAVMMCLETWYFMALVLFAGYLKDAEVAVAALSVCTNILGWTNTIAVGFNAAISVRVSNELGASRPRTAKFSVVVMVISAFLIGLIVSILLLIFQDQYPSLFSDSLDVKQVVYELTPLLAFSIVVNSIQPALSGVAIGAGWQALIAYVNIVCYYVFGVPLGLILGYPLNMGVKGIWYGMVAGTVLQTLILFWIVYRTDWNKEASIAAKRIKYWRGEAEAAKSKGLGEIK
notes: full-length ORF (524 residues, 12 TM helices), C-terminal GFP fusion (pBI121-RgMATE6-GFP), transiently expressed in Nicotiana benthamiana mesophyll protoplasts; vacuolar membrane vesicles
Protein B1 has a Km [1] of 35.59 µM and a Km [2] of 121.98 µM.

Reference: PMC12694110, “A Multidrug and Toxic Compound Extrusion Transporter, RgMATE6, Facilitates Vacuolar Transport of Acteoside in Rehmannia glutinosa” (Plants, 2025)
